Measured values from US7582299B2, “Cripto-specific antibodies” (Biogen Idec MA Inc., priority 2001, dated 2009).

Legend:
CR-Fc [1] = molecular target: T1, CR-Fc (Homo sapiens, UniProt P13385); experiment: ELISA of CR-Fc on ligand-coated plates; type: binding; settings: for inhibition of CR-Fc binding to Activin B coated plate: CR-Fc pre-incubated with ligand in solution, FIG. 9; for binding of CR-Fc to ligand-coated wells: ELISA plates coated with purified ligand, FIG. 8
T1 sequence (P13385 31-150): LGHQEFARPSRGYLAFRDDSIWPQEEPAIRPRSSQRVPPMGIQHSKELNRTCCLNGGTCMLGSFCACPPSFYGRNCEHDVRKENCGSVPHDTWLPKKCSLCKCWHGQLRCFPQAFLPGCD
Procedure: In still other experiments, we coated 96 well plates by adding to each well 100 μl of 3-5 μg/ml Activin B or another ligand in 50 mM carbonate (pH 9.5). We incubated the plates for 1 hr. at room temperature and blocked overnight with TBS/1% BSA overnight at 4° C. We incubated the plate with CR-Fc or ALK4-Fc in blocking buffer at room temperature, washed in TBST and probed with anti-human-AP (Jackson). We washed the plate in TBST, once in 10× substrate buffer (200 mM Tris-HCl, 10 mM MgCl2, pH 9.8) and added CSPD and Sapphire (Applied Biosystems).
We discovered that Cripto binds directly to Activin B. We coated ELISA plates with purified Activin B, Activin A, TGFβ1, GDNF or BMP2 and incubated with CR-Fc. We then added anti-Fc antibody conjugated to alkaline phosphatase and monitored binding by adding an alkaline phosphatase substrate and developing.

T-47D cells = experiment: Proliferation of T-47D cells with Activin A or B (MTT); type: cell-based, human; settings: low serum; compared to untreated cells; FIG. 6
Procedure: (§1) T47D cells, maintained in RPMI/10% FCS/10 μg/ml insulin, at passage #2 from the ATCC were transfected with an expression plasmid for the Ecotropic Receptor (EcoR; B. Elenbaas) and selected in media containing 100 μg/ml hygromycin. Colonies of T-47D-EcoR that permitted infection of pBABE-GFP murine leukemia virus (MLV) were grown out, infected with pBABE-hCr-PURO-MLV and selected in puromycin media. This oligoclonal line (T-47D-hCr) was analyzed by FACS for hCr (human Cripto) expression with specific anti-Cripto antibodies. Approximately 4000 cells/well of T-47D-EcoR or T-47D-hCr were plated in a 96 well plate in media containing 2% serum with/without 25 ng/ml Activin B (R&D) or […] plus 0.1-50 μg/ml A8G3.5. Media with factors was replaced daily for 7-8 days. The plate was harvested by adding 20 μl/well CellTiter AQueous One solution (Promega), incubating 2 hours 37° C., and reading at 490 nm.
(§2) We grew T-47D and T-47D-EcoR cells in low serum conditions, with or without Activin A or B and assayed for proliferating cells using an MTT colorimetric assay.

T-47D-CR cells = experiment: Proliferation of T-47D-CR cells with Activin, with or without anti-Cripto mab; type: cell-based, human; settings: low serum; FIG. 6
Procedure: as §1, §2
We then tested whether antibodies of the invention can inhibit the Cripto-Activin B interaction. We treated T-47D-CR cells with Activin B in the presence of various antibodies of the invention. We observed that the growth suppressive activity of Activin B was restored in the presence of 10 or 20 μg/ml mab A8G3.5 (FIG. 7).

CR-Fc [2] = molecular target: T1, CR-Fc; experiment: Biacore, CR-Fc immobilized on chip; type: binding; settings: for binding to CR-Fc immobilized on a Biacore chip: FIG. 10
Description: We also analyzed the Cripto-Activin B interaction using Biacore. […] We also observed that Activin A binding to CR-Fc was negligible.

Row | Substance | inhibition of CR-Fc binding to Activin B coated plate (CR-Fc [1]) | binding of CR-Fc to ligand-coated wells (CR-Fc [1]) | inhibition of proliferation of T-47D cells (T-47D cells) | response of T-47D-CR cell proliferation to Activin (T-47D-CR cells) | binding to CR-Fc immobilized on a Biacore chip (CR-Fc [2]) | on rate of binding to Cripto (CR-Fc [2]; Biacore)
1 | Activin A: purified ligand protein tested on T-47D cells and for binding to CR-Fc | only Activin B inhibits binding | not to Activin A | approximately 40% | inhibited by Activin A | negligible | 
2 | Activin B: purified ligand protein (R&D) that binds Cripto and inhibits tumor cell proliferation | only Activin B inhibits binding | bound to wells containing Activin B | approximately 40% | not responsive to Activin B | directly binds CR-Fc immobilized on a Biacore chip with a high intensity | fast on rate
